Target: D4 self-association region of P6 (amino acids 414-520), in pEG202 (Cauliflower mosaic virus isolate CM1841)
Assay: two-hybrid

Substance: Full-length P6 with the D3b mutation V324A, in pJG4-5 (natural protein)
- fold less β-galactosidase activity than the wild type: 9 fold
